In assay [1] the target is gp75 presented by HLA-A31 (COS cells transfected with gp75 plus HLA-A31) (human) (UniProt P17643).
Assay [2] deals with MART-1 presented by HLA-A2 (COS cells transfected with MART-1 plus HLA-A2) (human) (UniProt Q16655).
The target of assay [3] is tyrosinase peptide T9181 (…) on HLA-A24+ 888 EBVB cells (human).
In assay [4] the target is tyrosinase peptide T10213 (…) on HLA-A24+ 888 EBVB cells (human).
Assay [5] has as its target tyrosinase peptide T10209 (…) on HLA-A24+ 888 EBVB cells (human).
Assay [6] addresses tyrosinase peptide T10180 (…) on HLA-A24+ 888 EBVB cells (human).
The target of assay [7] is tyrosinase peptide T9199 (…) on HLA-A24+ 888 EBVB cells (human).
Assay [8] concerns the target tyrosinase peptide T10199 (…) on HLA-A24+ 888 EBVB cells (human).
The target in assay [9] is tyrosinase peptide T9206 (…) presented by HLA-A24 on 888 EBVB cells (human).
The target in assay [10] is tyrosinase peptide T9180 (…) on HLA-A24+ 888 EBVB cells (human).
Assay [11] concerns the target tyrosinase peptide T9177 (…) on HLA-A24+ 888 EBVB cells (human).
Assay [12] addresses tyrosinase peptide T10206 (…) presented by HLA-A24 on 888 EBVB cells (human).
Assay [13] deals with tyrosinase peptide T10166 (…) on HLA-A24+ 888 EBVB cells (human).
The target in assay [14] is β-gal with HLA-A24 (COS-7 cells transfected with β-gal + HLA-A24) (human).
For assay [15], the target named is tyrosinase presented by HLA-A24 (COS-7 cells transfected with tyrosinase + HLA-A24) (human).
The target of assay [16] is gp75 with HLA-A24 (COS-7 cells transfected with gp75 + HLA-A24) (human) (UniProt P17643).
The target of assay [17] is MART-1 with HLA-A24 (COS-7 cells transfected with MART-1 + HLA-A24) (human) (UniProt Q16655).
The target in assay [18] is gp100 with HLA-A24 (COS-7 cells transfected with gp100 + HLA-A24) (human) (UniProt P40967).
In assay [19] the target is tyrosinase presented by HLA-A24 (COS-7 cells transfected with tyrosinase + HLA-A24) (human). This is another data set of the same source.
Assay [20] addresses p15 9-18 peptide … presented by HLA-A24 on 888 EBV B cells (human).
Assay [21] addresses p15 10-18 peptide … presented by HLA-A24 on 888 EBV B cells (human).
For assay [22], the target named is p15 9-18 peptide … presented by HLA-A24 on 888 EBV B cells (human). The source holds these as a separate data set.
Assay [23] has as its target p15 10-18 peptide … presented by HLA-A24 on 888 EBV B cells (human). The source holds these as a separate data set.
Assay [24] concerns the target p15 presented by HLA-A24 (293-A24 or COS-7 cells transfected with the p15 cDNA and HLA-A24) (human).
Assay [25] concerns the target Clone 1 (full length p15 RT-PCR product from 888 EBV B cells) presented by HLA-A24 on COS-7 cells (human).
Assay [26] addresses Clone 2 (truncated p15 RT-PCR product from 888 EBV B cells) presented by HLA-A24 on COS-7 cells (human).
For assay [27], the target named is β-gal with HLA-A24 (COS-7 cells transfected with β-gal + HLA-A24) (human). This is another data set of the same source.
For assay [28], the target named is gp100 presented by HLA-A2 (COS cells transfected with gp100 plus HLA-A2) (human) (UniProt P40967).

As to “TIL 586 (cells without a defined receptor)”, the GM-CSF in [1] came to 770 pg/mL.
As for “TIL 1235 (cells without a defined receptor)”, in [2], the GM-CSF amounted to 1800 pg/mL.
Consider “TIL 1413 (cells without a defined receptor)”, for which the % Specific Lysis (E:T 40:1) and GM-CSF (pg/ml) (% specific lysis) is -1 in assay [3]; 1 in assay [4]; 0 in assay [5]; 1 in assay [6]; 0 in assay [7]; 1 in [8]. The % Specific Lysis (E:T 40:1) and GM-CSF (pg/ml) (% specific lysis) in assay [10] is 2; in [11], 0; in [12] it was 20; in [13], -1. In assay [9], the % specific lysis (E:T 40:1) (% specific lysis) came out at 26. In addition, the GM-CSF Secretion in assay [14] was determined as 30 pg/mL; in assay [15], 292 pg/mL.
Regarding “TIL 1290 (cells without a defined receptor)”, the GM-CSF in [16] came to 20 pg/mL; in assay [17], 20 pg/mL; in assay [18], 10 pg/mL; in [19] it was 20 pg/mL; in [24], 400 pg/mL. In addition, the GM-CSF (pg/ml) at 10 ug/ml peptide in assay [20] worked out at 780 pg/mL; in assay [21] it was 910 pg/mL. Also, the minimum peptide concentration sensitizing 888 EBV B cells for lysis (51Cr release) in assay [22] amounted to 10 ng/mL; in assay [23] it was 1 ng/mL. The minimum peptide concentration stimulating significant GM-CSF release in assay [22] and in [23] was 10 ng/mL in each case. Further, the results for the GM-CSF (pg/ml), Expt. 1 and Expt. 2 in [25], in assay [26] and in assay [27] were 740 pg/mL, 300 pg/mL and 40 pg/mL, respectively.
For “TIL 888 (cells without a defined receptor)”, the GM-CSF in assay [16] stood at 130 pg/mL; in assay [17] it was 140 pg/mL; in assay [18] it was 120 pg/mL; in assay [19], 1500 pg/mL; in assay [24], 60 pg/mL.
Take “TIL 1200 (cells without a defined receptor)”: the GM-CSF in assay [28] was 1500 pg/mL.
